Results: publication PMC11088876 (2024)

What was measured:
[1] = target: T1, Recombinant human ActRIIB-Fc (human, UniProt Q13705 19-137); test: SPR
T1 chain: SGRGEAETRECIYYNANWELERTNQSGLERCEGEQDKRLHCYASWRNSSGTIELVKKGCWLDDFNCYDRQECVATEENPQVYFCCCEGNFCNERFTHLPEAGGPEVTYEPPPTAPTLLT

[2] = target: Recombinant human ActRIIA-Fc (human, UniProt P27037 20-135); test: SPR
Chain of Recombinant human ActRIIA-Fc (P27037 20-135): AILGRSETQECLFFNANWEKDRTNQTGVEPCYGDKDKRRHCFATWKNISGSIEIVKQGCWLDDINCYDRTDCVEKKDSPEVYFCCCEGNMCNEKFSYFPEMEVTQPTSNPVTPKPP

Kd [1]: 20 nM
Kd [2]: 5 nM
B1: Recombinant human ActE (bacterially derived, provided by R&D Systems) (ligand)
chain: TPTCEPATPLCCRRDHYVDFQELGWRDWILQPEGYQLNYCSGQCPPHLAGSPGIAASFHSAVFSLLKANNPWPASTSCCVPTARRPLSLLYLDHNGNVVKTDVPDMVVEACGCS
